Assay [1] addresses T1, Reference peptide no. 2.
T1 construct: hIL-2 15-mer, first library, on microarray; also called peptide 2
T1 peptide: SSSTKKTQLQLEHLL
Briefly: peptide microarray (RepliTope), 15-mers. How it is done: (§1) Additional incubations are with unrelated antibodies from the same isotype (mouse control IgG2a/lambda and mouse control IgG2a/kappa), and secondary antibodies (anti-mouse IgG (Thermo 84545, label DL650) or anti-mouse IgG (JIR 115-175-072, Label Cy5)) to assess unspecific binding due to the detection antibody. The experiments are performed essentially as described in Maksimov P, et al. 2012, PLoS One 7:e34212. doi:10.1371/journal. pone. 0034212.
(§2) The determination of peptide-antibody binding was performed by RepliTope-analysis where the peptide microarray (triplicate) was incubated with the primary antibody followed by a fluorescently labelled secondary antibody directed against the Fc-part of the primary one. All steps were performed on a TECAN microarray processing station enabling highly reliable and reproducible washing and incubation steps. After performing the incubation steps and subsequent to the final washing steps (to remove the unbound secondary antibodies) the microarrays were dried using a nitrogen stream and scanned in a high resolution microarray scanning system with appropriate wavelength settings. Control incubations were performed with an unrelated antibody having the same isotype to exclude false positive signals.
(§3) The resulting images were analyzed und quantified using spot-recognition software GenePix (Molecular Devices). For each spot, the mean signal intensity was extracted (between 0 and 65535 arbitrary units). For further data evaluation, the MMC2 values were determined. The MMC2 equals the mean value of all three instances on the microarray. Except the coefficient of variation (CV)—standard-deviation divided by the mean value—is larger 0.5, in this case the mean of the two closest values (MC2) is assigned to MMC2.

Assay [2] deals with T2, Reference peptide no. 6.
T2 construct: hIL-2 15-mer, first library, on microarray; also called peptide 6
T2 peptide: HLLLDLQMILNGINN
Kind of assay: peptide microarray (RepliTope), 15-mers. How it is done:
as §1, §2, §3

Assay [3] addresses T3, Reference peptide no. 8.
T3 construct: hIL-2 15-mer, first library, on microarray; also called peptide 8
T3 peptide: QMILNGINNYKNPKL
Briefly: peptide microarray (RepliTope), 15-mers. The procedure: as §1, §2, §3

Assay [4] addresses T4, Reference peptide no. 20.
T4 construct: hIL-2 15-mer, first library, parental Cys replaced by Ser, on microarray; also called peptide 20
T4 peptide: SLEEELKPLEEVLNL
Briefly: peptide microarray (RepliTope), 15-mers. How it is done: as §1, §2, §3

Assay [5] concerns the target T5, Reference peptide no. 29.
T5 construct: hIL-2 15-mer, first library, on microarray; also called peptide 29
T5 peptide: LISNINVIVLELKGS
Kind of assay: peptide microarray (RepliTope), 15-mers. How it is done:
as §1, §2, §3

Assay [6] has as its target T6, Reference peptide no. 39.
T6 construct: hIL-2 15-mer, first library, parental Cys replaced by Ser, on microarray; also called peptide 39
T6 peptide: VEFLNRWITFSQSII
Kind of assay: peptide microarray (RepliTope), 15-mers. How it is done: as §1, §2, §3

The target of assay [7] is T7, Reference peptide no. 44.
T7 construct: second library: peptide 12 with F(62) to Ala; also called peptide 44
T7 peptide: PKLTRMLTAKFYMPK
Briefly: peptide microarray (RepliTope), 15-mers. The procedure:
as §1, §2, §3

Assay [8] concerns the target T8, Reference peptide no. 56.
T8 construct: second library: peptide 20 with L(92) to Ala; parental Cys replaced by Ser; also called peptide 56
T8 peptide: SLEEELKPLEEVLNA
Kind of assay: peptide microarray (RepliTope), 15-mers. The procedure: as §1, §2, §3

In assay [9] the target is T9, Reference peptide no. 59.
T9 construct: second library: peptide 23 with L(92) to Ala; also called peptide 59
T9 peptide: EEVLNAAQSKNFHLR
Briefly: peptide microarray (RepliTope), 15-mers. The procedure:
as §1, §2, §3

For assay [10], the target named is T10, Reference peptide no. 10.
T10 construct: hIL-2 15-mer, first library, on microarray; also called peptide 10
T10 peptide: INNYKNPKLTRMLTF
Briefly: peptide microarray (RepliTope), Ala mutagenesis set.

The target of assay [11] is T11, Reference peptide no. 11.
T11 construct: hIL-2 15-mer, first library, on microarray; also called peptide 11
T11 peptide: YKNPKLTRMLTFKFY
The assay is described as above.

In assay [12] the target is T12, Reference peptide no. 12.
T12 construct: hIL-2 15-mer, first library, on microarray; also called peptide 12
T12 peptide: PKLTRMLTFKFYMPK
Described as above.

The target of assay [13] is T13, Reference peptide no. 13.
T13 construct: hIL-2 15-mer, first library, on microarray; also called peptide 13
T13 peptide: TRMLTFKFYMPKKAT
The assay is described as above.

Assay [14] addresses T14, Reference peptide no. 42.
T14 construct: second library: peptide 10 with F(62) to Ala; also called peptide 42
T14 peptide: INNYKNPKLTRMLTA
The assay is described as above.

For assay [15], the target named is T15, Reference peptide no. 43.
T15 construct: second library: peptide 11 with F(62) to Ala; also called peptide 43
T15 peptide: YKNPKLTRMLTAKFY
The description is as above.

Assay [16] deals with T7, Reference peptide no. 44. The description is as above.
For assay [17], the target named is T16, Reference peptide no. 45.
T16 construct: second library: peptide 13 with F(62) to Ala; also called peptide 45
T16 peptide: TRMLTAKFYMPKKAT
The description is as above.

The target of assay [18] is T17, Reference peptide no. 47.
T17 construct: second library: peptide 11 with Y(65) to Ala; also called peptide 47
T17 peptide: YKNPKLTRMLTFKFA
Described as above.

For assay [19], the target named is T18, Reference peptide no. 49.
T18 construct: second library: peptide 13 with Y(65) to Ala; also called peptide 49
T18 peptide: TRMLTFKFAMPKKAT
The assay is described as above.

Assay [20] addresses T19, Reference peptide no. 52.
T19 construct: second library: peptide 11 with F(62) and Y(65) to Ala; also called peptide 52
T19 peptide: YKNPKLTRMLTAKFA
Described as above.

Assay [21] concerns the target T20, human interleukin-2 (human, UniProt P60568 21-153).
T20 construct: also called hIL-2; human IL-2
Briefly: SPR, antibody amine-coupled on GLM chip, hIL-2 in solution. The procedure:
For this experiment an amine coupling GLM chip was used. The activation of the carboxylic acid groups in the chip was done using a mix of 1-ethyl-3-3-dimethylaminopropyl carbodiimide hydrochlorid (EDC at 0.2 M) and sulfo N-hydroxysulfosuccinimids (s_NHS at 0.05M) at […] for 420 seconds (s). […] Deactivation was followed adding ethanolamine HCl at […] for 300 s. Finally human IL-2 was added at different concentrations (starting from 100 nM and followed by three-fold dilutions) at […], 600 s association, and 240 s dissociation.
In order to characterize the binding properties of the anti-human IL-2 mAbs the binding to human interleukin-2 was tested with surface plasmon resonance binding assays.

T20 sequence (P60568 21-153 limits assumed): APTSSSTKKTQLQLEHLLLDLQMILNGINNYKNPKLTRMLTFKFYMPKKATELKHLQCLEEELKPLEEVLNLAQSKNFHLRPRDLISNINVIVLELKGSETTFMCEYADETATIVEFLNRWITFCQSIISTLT

B1: NARA1 (antibody, mouse IgG2a, kappa, V domains shown)
VH: QVQLQQSGAELVRPGTSVKVSCKASGYAFTNYLIEWVKQRPGQGLEWIGVINPGSGGTNYNEKFKGKATLTADKSSSTAYMQLSSLTSDDSAVYFCARWRGDGYYAYFDVWGAGTTVTVSS
VL: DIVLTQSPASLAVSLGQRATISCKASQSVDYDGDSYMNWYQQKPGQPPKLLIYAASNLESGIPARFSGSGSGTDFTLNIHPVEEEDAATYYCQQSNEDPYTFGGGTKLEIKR
notes: Mouse monoclonal from hybridoma; Isotype controls used were mouse IgG2a; also called anti-IL2 (NARA1) antibody; monoclonal antibody NARA1
As to B1, the binding result in assay [1], in assay [2], in assay [3], in assay [4], in assay [5] and in assay [6] was “no binding” throughout. Moreover, the binding result in assay [7], in assay [8] and in assay [9] was “no binding” throughout. In addition, the “signal intensity after subtraction of control signal” value in assay [10] came to 20900 AU; in assay [11], 1190 AU; in assay [12] it was 1130 AU; in assay [13] it was 224 AU; in assay [14], 162 AU; in assay [15], 507 AU. The “signal intensity after subtraction of control signal” value stood at 432 AU in assay [16]; 0 AU in assay [17]; 251 AU in assay [18]; 1490 AU in assay [19]; 238 AU in assay [20]. Besides, the Kd in assay [21] stood at 1.2 nM. The molecule further gave a koff in [21] of 2.08e-05 s⁻¹.

(Values after patent US20170183403A1 (UNIVERSIT T Z RICH, published 2017).)
